Substitutions are numbered along the chain they refer to.
Experiments:
Test in all cases: EMSA
I-CreI K139M = target: T1, I-CreI K139M (UniProt P05725 1-163, K139M)
T1 sequence: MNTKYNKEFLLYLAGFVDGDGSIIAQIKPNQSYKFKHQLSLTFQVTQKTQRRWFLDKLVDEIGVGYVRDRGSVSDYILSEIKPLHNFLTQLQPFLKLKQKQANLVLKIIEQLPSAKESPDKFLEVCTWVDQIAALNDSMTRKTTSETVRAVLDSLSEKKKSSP

I-CreI GG = target: T2, I-CreI GG (UniProt P05725 1-163, K142G;T143G)
T2 sequence: T1 sequence with M139K, K142G, T143G

I-CreI S138A = target: T3, I-CreI S138A (UniProt P05725 1-163, S138A)
T3 sequence: T1 sequence with S138A, M139K

I-CreI AM = target: T4, I-CreI AM (UniProt P05725 1-163, S138A;K139M)
T4 sequence: T1 sequence with S138A

I-CreI = target: T5, I-CreI (UniProt P05725 1-163)
T5 sequence: T1 sequence with M139K

I-CreI Δ1 = target: T6, I-CreI Δ1 (UniProt P05725 1-137)
T6 sequence: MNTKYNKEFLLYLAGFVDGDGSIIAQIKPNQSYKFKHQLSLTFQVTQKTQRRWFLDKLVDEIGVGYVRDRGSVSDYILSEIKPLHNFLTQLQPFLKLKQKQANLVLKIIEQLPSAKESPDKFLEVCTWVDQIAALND

B1: 6-FAM I-CreI target duplex (dsDNA)
DNA 1: GCAAAACGTCGTGAGACAGTTTGC
DNA 2: GCAAACTGTCTCACGACGTTTTGC
In the case of B1, the Kd (I-CreI K139M) is reported as 110 nM, the Kd (I-CreI GG) is reported as 50 nM and the Kd (I-CreI S138A) is reported as 250 nM. For the same binder, the Kd (I-CreI AM) was 1240 nM, the Kd (I-CreI) was 0.2 nM and the binding result (I-CreI Δ1) was “no binding”.

Reference: article PMC1904291
